PMC11585616, “Allosteric substrate release by a sialic acid TRAP transporter substrate binding protein” (Communications Biology, 2024)
Several values for one entry are separate records, joined by “and”; a condition that tells them apart may be missing. Identical values can stand only once.

Columns and labels:
Conditions in all cases: both partners purified
VcSiaP [1] = target: T1, VcSiaP (Vibrio cholerae O1 El Tor N16961 …, UniProt Q9KR64); experiment: ITC; VHH titrated to the SBP, 25 °C, 50 mM Tris, 50 mM NaCl, pH 8.0; one set of sites model
T1 construct: all residues 1-299 seen in the crystal structures; also called SiaP from V. cholerae; VcSiaPwt; not shown: His6, N-terminal, cleaved
T1 sequence (Q9KR64 23-321, one chain of several): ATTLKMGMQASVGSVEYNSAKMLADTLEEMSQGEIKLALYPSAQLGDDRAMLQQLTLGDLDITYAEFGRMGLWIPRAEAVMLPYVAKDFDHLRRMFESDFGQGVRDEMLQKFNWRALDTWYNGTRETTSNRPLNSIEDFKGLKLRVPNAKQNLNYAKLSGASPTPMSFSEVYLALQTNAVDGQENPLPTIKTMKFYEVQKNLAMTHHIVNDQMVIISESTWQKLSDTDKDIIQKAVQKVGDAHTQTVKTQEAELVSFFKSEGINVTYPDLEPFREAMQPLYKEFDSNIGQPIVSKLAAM

VcSiaP [2] = target: T1, VcSiaP; experiment: SEC-MALS; Superose6 increase 10/300, room temperature, 50 mM Tris, 50 mM NaCl, pH 8.0; 120 uM of each protein
VcSiaP [3] = target: T1, VcSiaP; experiment: ITC; SiaP first loaded with Neu5Ac, then titrated with the VHH (sequential titration), 25 °C, 50 mM Tris, 50 mM NaCl, pH 8.0; competitive binding model for the wild type

| Binder | Kd (VcSiaP [1]) | stoichiometry N (VcSiaP [2]) | stoichiometry N (VcSiaP [3]) |
| --- | --- | --- | --- |
| VHHVcP #1 (VHH, alpaca VHH raised against VcSiaP; A second construct (pET28a, N-terminal pelB-His6-TEV, tag cleaved) was made to improve crystallization; also called Vc#1; source: E. coli WK6, periplasmic extract, purified (Ni2+-NTA, SEC); not shown: HA, C-terminal, kept; His6, C-terminal, kept) VHH: QVQLVESGGGLVQAGGSLRLSCAASGRTFSSSTMGWFRQAPGKEREFVAGISWSDGSTYYADSVKGRFTISRDNAKNTVYLQMNSLKPEDSAVYYCAAERWLATPQAMAVTPNALDAWGQGTQVTVSS | 162 nM | 1 |  |
| VHHVcP #2 (VHH, alpaca VHH raised against VcSiaP; A second construct (pET28a, N-terminal pelB-His6-TEV, tag cleaved) was made to improve crystallization; also called Vc#2; source: E. coli WK6, periplasmic extract, purified (Ni2+-NTA, SEC); not shown: HA, C-terminal, kept; His6, C-terminal, kept) VHH: QVQLVESGGRLVQTGGSLRLSCAASGDTFSNYVMGWFRQAPGKEREFVAAISWTGANSYYADSVAGRFTISRDNAKNTVALQMNSLKPEDTAIYYCAADHFHVTHRKYDYWGQGTQVTVSS | 13 nM and 16 nM | 1 | ~1 |
